The values below come from patent publication US20200270588A1, “GLUCOSYL TRANSFERASE POLYPEPTIDES AND METHODS OF USE” (Syngenta Participations AG, priority 2017, published 2020).

Numbering of substitutions follows the chain as printed. Names and notes keep the numbering of the source.

B1: V370L: bx9 SEQ ID NO:1 mutant (protein)
chain: MASSRTGAGAGGRVVVFPFPFQGHFNPVMRLARALHARGLAITVFHSGALDPADYPADYRFVPVTVEADPKLLASEDIAAIVTTLNASCDAPFRARLSALLAAEGRDSVRCVFTDVSWNAVLTASSDLGVPALGMMTASAASLRDYMAYRTLIDKGYLPVKEERKEDPVPELPPYLVKDLLRVDTSDLEEFAELLARTVTAARRASGLIFNTFPLIETDTLAEIHKALSVPVFAVAPLNKLVPTATASLHGVVQADRGCLQWLDTQQPGSVLYVSFGSMAAMDPHEFVELAWGLADSKRPFVWVVRPNLIRGFESGALPDGVEDEVRGRGIVVAWAPQEEVLAHPAVGGFLTHNGWNSTVEAISEGVPMLCCPRHGDQFGNMRYVCDVWKVGTELVGEQLERGQVKAAIDRLFGTKEGEEIKERMKEFKIAAAKGIGIGVDVDETASPRTDLTDLVDLIKSF
modifications: Zea mays
B2: I363F: bx9 SEQ ID NO:1 mutant (protein)
chain: B1 chain with I363F, L370V
modifications: Zea mays
B3: V370M: bx9 SEQ ID NO:1 mutant (protein)
chain: B1 chain with L370M
modifications: Zea mays
B4: I363V: bx9 SEQ ID NO:1 mutant (protein)
chain: B1 chain with I363V, L370V
modifications: Zea mays
B5: A334K: bx9 SEQ ID NO:1 mutant (protein)
chain: B1 chain with A334K, L370V
modifications: Zea mays
B6: A281V: bx9 SEQ ID NO:1 mutant (protein)
chain: B1 chain with A281V, L370V
modifications: Zea mays
B7: I363A: bx9 SEQ ID NO:1 mutant (protein)
chain: B1 chain with I363A, L370V
modifications: Zea mays
B8: V370T: bx9 SEQ ID NO:1 mutant (protein)
chain: B1 chain with L370T
modifications: Zea mays
B9: I363C: bx9 SEQ ID NO:1 mutant (protein)
chain: B1 chain with I363C, L370V
modifications: Zea mays
B10: I363W: bx9 SEQ ID NO:1 mutant (protein)
chain: B1 chain with I363W, L370V
modifications: Zea mays
B11: I363S: bx9 SEQ ID NO:1 mutant (protein)
chain: B1 chain with I363S, L370V
modifications: Zea mays
B12: I363T: bx9 SEQ ID NO:1 mutant (protein)
chain: B1 chain with I363T, L370V
modifications: Zea mays
B13: V370C: bx9 SEQ ID NO:1 mutant (protein)
chain: B1 chain with L370C
modifications: Zea mays
B14: A281T: bx9 SEQ ID NO:1 mutant (protein)
chain: B1 chain with A281T, L370V
modifications: Zea mays
B15: A280V: bx9 SEQ ID NO:1 mutant (protein)
chain: B1 chain with A280V, L370V
modifications: Zea mays
B16: A281S: bx9 SEQ ID NO:1 mutant (protein)
chain: B1 chain with A281S, L370V
modifications: Zea mays
B17: A281L: bx9 SEQ ID NO:1 mutant (protein)
chain: B1 chain with A281L, L370V
modifications: Zea mays
B18: A432Q: bx9 SEQ ID NO:1 mutant (protein)
chain: B1 chain with L370V, A432Q
modifications: Zea mays
B19: A432T: bx9 SEQ ID NO:1 mutant (protein)
chain: B1 chain with L370V, A432T
modifications: Zea mays
B20: E339A (protein)
chain: B1 chain with M279F, E339A, L370V, H375Y
modifications: C-terminal His tag; Zea mays
B21: A432N: bx9 SEQ ID NO:1 mutant (protein)
chain: B1 chain with L370V, A432N
modifications: Zea mays
B22: A432V: bx9 SEQ ID NO:1 mutant (protein)
chain: B1 chain with L370V, A432V
modifications: Zea mays
B23: A432H: bx9 SEQ ID NO:1 mutant (protein)
chain: B1 chain with L370V, A432H
modifications: Zea mays

The first assay in a line: UDP luminescence plate assay of E. coli extracts, saturation mutants of SEQ ID NO: 1, herbicide V. The assay is classed as biochemical, Zea mays. The following applies: improvement factor relative to w/t bx9 = 1.0, rounded to nearest 0.5; extract activity basis; compound V. How it is done:
Competent BL21 (DE3) cells are transformed as in the foregoing examples and, following seed culturing, grown and autoinduced in plates in a 0.5-1 ml volume of autoinduction medium containing 50 ug/ml kanamycin. Plates are incubated at 37° C. and shaken at 900 rpm. Growth is monitored by taking 20 ul aliquots, diluting 10 fold into flat-bottomed 96 well microtiter plates and reading OD600n at t=0, 1, 2, 2½ and 3 hours if necessary. At a (corrected) OD600 nm˜0.2, plates are transferred to 20° C. and shaken overnight at 900 rpm in a Jencons VWR plate incubator. After ˜18-20 h the final OD600 readings are recorded and the plates centrifuged at 4600 rpm (bench top centrifuge) for 10 min at 4° C. The supernatant is discarded and the pellets then washed with 0.25 ml PBS by repeat centrifugation and removal of supernatant before freezing cell pellets at −80° C. To prepare extracts, plates are allowed to thaw for 30 min and then pellets are resuspended in 0.25 ml of a suitable lysis buffer (for example—50 mM Tris HCL buffer at pH 8.0, 5% glycerol containing 50 mM NaCl and lysonase) mixed, incubated at room temperature for a sufficient time for lysis to be near complete and then centrifuged to remove cell debris and 100 ul of supernatant extract removed to a 96 well V-shaped well plate and stored on ice prior to assay.
Optionally plate assays are stopped with brief heating to 95 C before returning to ice and addition of UDP-Glo detection reagent followed by incubation at lab temperature. […] In addition a UDP standard curve is run alongside each set of plate tests.
Making use of the ELISA assay it is then possible to calculate a specific activity (e.g. in Relative Luminescence Units (RLU)/min/ug bx protein) based upon the amount of each mutant bx9 polypeptide expressed in each well. […] The specific activity of the various test mutant extracts on the same plate are then expressed as a fraction of the specific activity of the w/t bx9 and thus the ‘improvement factor’ versus the w/t expressed as a decimal where, for example, ‘0.5’ means half the specific activity of the wild type and 2.0 means twice the specific activity of the wild type. However, as will be readily apparent to the skilled man, particularly in cases where the UDP assay signal was low (with poor signal to noise versus the background) and/or the ELISA measurement of bx protein also low such a method is prone to generate spurious high specific activity numbers and uncertain numbers.
On to B1, for which the “Preferred amino acid substitutions and (IF) based on RLU/min/ul” value is “T,C,L,M(1.0)”.

As for B2, the “Preferred amino acid substitutions and (IF) based on RLU/min/ul” value is “S,T,F,W(1.5)”.

With B3, the “Preferred amino acid substitutions and (IF) based on RLU/min/ul” value is reported as “T,C,L,M(1.0)”.

As to B4, the “Most Preferred amino acid substitutions and (IF) based on RLU/min/ul” value is recorded as “A,V(2.0)”.

In the case of B5, the “Most Preferred amino acid substitutions and (IF) based on RLU/min/ul” value was “K,R(2.0)”.

As for B6, the “Preferred amino acid substitutions and (IF) based on RLU/min/ul” value is reported as “S,T,V(1.0)”.

Consider B7, for which the “Most Preferred amino acid substitutions and (IF) based on RLU/min/ul” value was “A,V(2.0)”.

B8: the “Preferred amino acid substitutions and (IF) based on RLU/min/ul” value was “T,C,L,M(1.0)”.

Take B9: the “Preferred amino acid substitutions and (IF) based on RLU/min/ul” value was “C(1.0)”.

Take B10: the “Preferred amino acid substitutions and (IF) based on RLU/min/ul” value is listed as “S,T,F,W(1.5)”.

In the case of B11, the “Preferred amino acid substitutions and (IF) based on RLU/min/ul” value is reported as “S,T,F,W(1.5)”.

Take B12: the “Preferred amino acid substitutions and (IF) based on RLU/min/ul” value was “S,T,F,W(1.5)”.

As to B13, the “Preferred amino acid substitutions and (IF) based on RLU/min/ul” value is “T,C,L,M(1.0)”.

Turning to B14, the “Preferred amino acid substitutions and (IF) based on RLU/min/ul” value is “S,T,V(1.0)”.

Consider B15, for which the “Preferred amino acid substitutions and (IF) based on RLU/min/ul” value is listed as “V(1.0)”.

Turning to B16, the “Preferred amino acid substitutions and (IF) based on RLU/min/ul” value was “S,T,V(1.0)”.

On to B17, for which the “Preferred amino acid substitutions and (IF) based on RLU/min/ul” value is on record as “L(1.5)”.

Another assay is described as follows: UDP luminescence plate assay of E. coli extracts, mutants of SEQ ID No: 1, 2 mM metribuzin. The assay is classed as biochemical, Zea mays. As to conditions: 2 mM metribuzin. The procedure, abridged:
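Extracts of E. coli BL21 DE3 expressing C-terminally His-tagged SEQ ID NO:1 variants incubated with 2 mM metribuzin; UDP formed read by UDP-Glo luminescence against a UDP standard curve, with optional 95 C stop. Mutants ranked by metribuzin/DMSO signal ratio and signal increase over wild-type bx9.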
Take B18: the “factor of increased signal relative to the bx9 w/t control signal (first parentheses)” value stood at 6 and the “ratio of activity with metribuzin relative to activity with DMSO (second parentheses)” value amounted to 1.35.

Regarding B19, the “factor of increased signal relative to the bx9 w/t control signal (first parentheses)” value stood at 3.5 and the “ratio of activity with metribuzin relative to activity with DMSO (second parentheses)” value came to 1.35.

A further assay is described as follows: UDP luminescence plate assay of E. coli extracts, mutants within SEQ ID No: 17, 2 mM metribuzin. The assay is classed as biochemical, Zea mays. The following applies: 2 mM metribuzin vs DMSO control, same mutant.
Regarding B18, the “RATIO of the metribuzin signal to the DMSO signal” value (shortened to “RATIO of the metribuzin signal”) is listed as 1.20.

For the molecule B19, the “RATIO of the metribuzin signal” value is reported as 1.17.

Take B20: the “RATIO of the metribuzin signal” value was determined as 1.53.

Staying with this assay, now noted: 2 mM metribuzin; relative to SEQ ID No: 17 control.
Take B18: the “SIGNAL: metribuzin signal of mutant divided by the signal of the SEQ ID No. 17 control” value was 4.09.

For B19, the “SIGNAL: metribuzin signal of mutant divided by the signal of the SEQ ID No. 17 control” value came out at 3.57.

With B20, the “SIGNAL: metribuzin signal of mutant divided by the signal of the SEQ ID No. 17 control” value was 2.01.

As to B21, the “SIGNAL: metribuzin signal of mutant divided by the signal of the SEQ ID No. 17 control” value stood at 4.21.

As for B22, the “SIGNAL: metribuzin signal of mutant divided by the signal of the SEQ ID No. 17 control” value is reported as 3.88.

For the molecule B23, the “SIGNAL: metribuzin signal of mutant divided by the signal of the SEQ ID No. 17 control” value is reported as 3.44.

Still in this assay, the particulars now being: additional mutations within SEQ ID No: 17; DMSO in place of metribuzin.
With B18, the “luminescence signal in the DMSO control” value is listed as 6.22E+06.

Take B19: the “luminescence signal in the DMSO control” value worked out at 5.56E+06.

Consider B20, for which the “luminescence signal in the DMSO control” value is given as 2.39E+06.

Consider B21, for which the “luminescence signal in the DMSO control” value is listed as 6.13E+06.

For the molecule B22, the “luminescence signal in the DMSO control” value worked out at 5.69E+06.

Regarding B23, the “luminescence signal in the DMSO control” value is reported as 6.08E+06.

The same assay, now with this note: additional mutations within SEQ ID No: 17; control = SEQ ID No: 17; 2 mM metribuzin.
Turning to B18, the “luminescence signal observed with 2 mM metribuzin” value (from here on “luminescence signal observed”) amounted to 7.46E+06.

In the case of B19, the “luminescence signal observed” value stood at 6.51E+06.

Turning to B20, the “luminescence signal observed” value came out at 3.66E+06.

With B21, the “luminescence signal observed” value was determined as 7.67E+06.

Take B22: the “luminescence signal observed” value was determined as 7.07E+06.

For B23, the “luminescence signal observed” value stood at 6.28E+06.
